The text below walks through data of patent US20230365705A1 (DYNAMICURE BIOTECHNOLOGY, published 2023).

The target in test [1] is T1, Human CD93 on cells (human CD93 expressing CHO cells; HUVEC, U937 and KG1a cells) (human, UniProt Q9NPY3 22-652).
T1 construct: whole, on cells; also called hCD93 expressing CHO cells; hCD93 CHO cells
T1 sequence (looked up): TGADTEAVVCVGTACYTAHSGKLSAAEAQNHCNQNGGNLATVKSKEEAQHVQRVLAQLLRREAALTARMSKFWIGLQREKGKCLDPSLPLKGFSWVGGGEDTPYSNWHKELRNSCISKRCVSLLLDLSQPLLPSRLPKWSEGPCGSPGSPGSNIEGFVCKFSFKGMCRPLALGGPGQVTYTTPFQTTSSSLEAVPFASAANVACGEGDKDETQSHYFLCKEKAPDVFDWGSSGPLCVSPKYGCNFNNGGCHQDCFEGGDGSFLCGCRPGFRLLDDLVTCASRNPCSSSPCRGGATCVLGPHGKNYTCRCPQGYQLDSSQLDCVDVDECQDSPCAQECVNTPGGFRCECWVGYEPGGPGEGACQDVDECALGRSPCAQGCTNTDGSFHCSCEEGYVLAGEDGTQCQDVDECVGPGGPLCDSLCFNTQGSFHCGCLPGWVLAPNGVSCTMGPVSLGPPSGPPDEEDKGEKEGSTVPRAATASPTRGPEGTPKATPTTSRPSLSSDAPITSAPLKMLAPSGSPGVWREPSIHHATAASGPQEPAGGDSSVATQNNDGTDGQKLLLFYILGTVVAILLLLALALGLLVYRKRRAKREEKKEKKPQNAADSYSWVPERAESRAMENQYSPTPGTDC
The test can be described thus: flow cytometry titration, CHO-hCD93 cells. Here is the method: Human CD93 expressing CHO cells were detached by incubation with TrypLE reagents (Thermo Fisher), which preserves the integrity of CD93 on the cell surface. Then the cells were incubated with serial diluted anti-CD93 antibodies for 30 minutes at 4° C. After washing by FACS buffer, the cells were incubated with Alexa Fluor 647 conjugated anti-human IgG (Jackson ImmunoResearch) for 30 minutes in 4° C. After washing by FACS buffer twice, the samples were acquired in NovoCyte Flow Cytometer and analyzed by NovoExpress software.
A general note: In flow cytometry, cells or beads pass a laser one at a time.

The target in test [2] is T2, Human CD93 recombinant protein (Sino Biological Inc, Catalog #12589-H08H) (human, UniProt Q9NPY3 22-580).
T2 construct: Biotinylated (EZ-LINK NHS-PEG4 biotin) in the BLI assays; also called hCD93; His-tagged human CD93
T2 sequence (looked up): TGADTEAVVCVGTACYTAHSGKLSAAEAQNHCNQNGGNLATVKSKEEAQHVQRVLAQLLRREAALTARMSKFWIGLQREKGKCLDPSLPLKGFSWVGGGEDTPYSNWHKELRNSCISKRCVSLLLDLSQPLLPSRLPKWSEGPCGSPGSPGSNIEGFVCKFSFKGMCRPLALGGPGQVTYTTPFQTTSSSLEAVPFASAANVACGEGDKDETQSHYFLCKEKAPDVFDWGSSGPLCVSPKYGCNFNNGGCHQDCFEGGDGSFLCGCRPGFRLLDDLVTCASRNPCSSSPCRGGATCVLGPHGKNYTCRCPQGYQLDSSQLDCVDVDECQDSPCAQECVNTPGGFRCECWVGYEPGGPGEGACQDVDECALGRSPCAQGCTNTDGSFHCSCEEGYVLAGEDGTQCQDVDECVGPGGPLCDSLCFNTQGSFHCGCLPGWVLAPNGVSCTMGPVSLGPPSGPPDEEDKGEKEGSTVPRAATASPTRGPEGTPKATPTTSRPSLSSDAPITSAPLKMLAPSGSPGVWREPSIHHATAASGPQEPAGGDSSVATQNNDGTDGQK
The experiment in a line: BLI (Octet QKe), biotinylated human CD93 on streptavidin biosensors. Here is the method:
The binding affinity of anti-CD93 antibodies was determined with bio-layer interferometry using Octet QKe (Fortebio). […] Human CD93 recombinant protein (Sino Biological Inc, Catalog #12589-H08H) was biotinylated using EZ-LINK NHS-PEG4 biotin (Thermo Fisher Scientific). Streptavidin biosensors (Fortebio) were used to load biotinylated CD93 protein (300 seconds in 5 μg/ml). Baseline was stabilized for 60 seconds in 1× kinetics buffer (Fortebio) before anti-CD93 antibodies, at a serial dilution, were allowed to associate for 300 seconds with captured protein. Then the sensors were dissociated in 1× kinetics buffer for 600 seconds. […] (FIG. 42).
In general terms: BLI is a label-free optical method that tracks binding on a fibre tip over time.

The target in test [3] is T1, Human CD93 on cells (human CD93 …). The experiment in a line: flow cytometry blocking assay, HUVEC cells; blocked ligand hIGFBP7-His 0.1 ug/ml; blocking activity runs from about 46 to about 72 % of control. Here is the method: After washing with FACS buffer twice, the samples were analyzed and data acquired in NovoCyte Flow.
For test [4] the target is unchanged. The test can be described thus: summary table, column FACS (HUVEC cells); 4 weeks at 40 C. Here is the method:
HUVEC cells were detached by incubation with TrypLE reagents (Thermo Fisher), which preserves the integrity of CD93 on the cell surface. Then the cells were incubated with serial diluted anti-CD93 antibodies for 30 minutes at 4° C. After washing by FACS buffer, the cells were incubated with Alexa Fluor 647 conjugated anti-human IgG (Jackson ImmunoResearch) for 30 minutes in 4° C. After washing by FACS buffer twice, the samples were acquired in NovoCyte Flow Cytometer and analyzed by NovoExpress software.

For test [5] the target is unchanged. The experiment in a line: flow cytometry titration, CHO-hCD93 cells; antibody stored 2 weeks at 40 C. Here is the method: (§1) Human CD93 expressing CHO cells were detached by incubation with TrypLE reagents (Thermo Fisher), which preserves the integrity of CD93 on the cell surface. Then the cells were incubated with serial diluted anti-CD93 antibodies for 30 minutes in 4° C. After washing by FACS buffer, the cells were incubated with Alexa Fluor 647 conjugated anti-human IgG (Jackson ImmunoResearch) for 30 minutes at 4° C. After washing by FACS buffer twice, the samples were acquired in NovoCyte Flow Cytometer and analyzed by NovoExpress software.

The target is the same in test [6]. The experiment in a line: flow cytometry titration, CHO-hCD93 cells; antibody stored 4 weeks at 40 C. Here is the method: as §1

B1: h16E4 (humanized 16E4, VH4+VL6) (antibody, V domains shown)
VH: QVQLVQSGAEVKKPGASVKVSCKASGYTFTSYWMHWVRQAPGQGLEWMGEIDPSASYTYYNQKFKGRVTMTRDKSSSTVYMELSSLTSEDSAVYYCARSVYYGNKYFDVWGAGTTVTVSS
VL: DIQMTQSPSTLSASVGDRVTITCKASQSVDYAGDSYMNWYQQKPGKAPKLLIYAASNLESGVPSRFSGSGSGTEFTLTISSLQPDDFATYYCQQTNEDPRTFGGGTKLEIK
notes: Detected with anti-human IgG, so a human Fc
A word on the EC50: it is the concentration giving half of the maximal effect. A high value points to lower potency in that assay. The Kd is the concentration at which binding is half-saturated. By koff is commonly meant the first-order rate constant of dissociation. As a reminder, the kon is a measure of how fast the partners come together. In test [1], B1 yielded an EC50 of 0.388 nM. In test [2], the Kd was 0.416 nM, the koff came to 0.000104 s⁻¹ and the kon worked out at 249000 M⁻¹ s⁻¹.

B2: h7F3 (humanized 7F3, VH3+VL3) (antibody, human IgG1, V domains shown)
VH: QVQLVQSGAEVKKPGASVKVSCKASGYTFTDYEMHWVRQAPGQGLEWMGGIDPETGDTAYNQNFKGRVTMTTDTSTSTAYMELRSLTSDDTAVYYCTNYGNLYYYAMDYWGQGTSVTVSS
VL: EIVLTQSPSSLSASVGDRVTITCRASSSVSSSYLHWYQQKPGKAPKLLIYSTSNLAFGVPSRFSGSGSGTSYTFTISSLQPEDIATYYCQQYSGYPLTFGSGTKLEIK
notes: also called humanized 7F3-hIgG1
For orientation: IC50 means the midpoint of a concentration-inhibition curve. The low end stands for higher potency, the high end for lower potency. In turn, B2 yielded a half-maximal inhibitory concentration (IC50) in test [3] of 1 nM. In addition, the EC50 in test [4] turned out to be 1.12 nM; in test [5], 0.194 nM; in test [6] it was 0.195 nM.
